Patent publication US6514942B1, “Methods and compositions for stimulating T-lymphocytes” (The Board of Regents, The University of Texas System, priority 1995, dated 2003)

Legend:
[1] = target: T1, HLA-A2 of T2 cells (Homo sapiens, UniProt P04439, D140Y/D185E/D98H/E176V/E277Q/G131W/G231S/I119V/I121R/I166T/I218V/L300P/L318F/N151K/N90K/P208A/P217A/Q86G/Q94H/R138H/R169H/T345S); assay: Reactivity of MA2.1 mAb with T2 cells after culture with peptide (immunofluorescence, FL1); assay type: cell-based; conditions: peptide 50 μg/ml, overnight culture in IMDM-FCS
T1 construct: cell surface expression of HLA-A2 is lower (30-40%) than in normal LBL lines transfected with HLA-A2; endogenous in cells; host or cells: T2 (transport deletion mutant) human lymphoblastoid cells, obtained from Dr. Peter Creswell
Method: FIG. 5A. Effects of HER-2 peptides on reactivity of MA2.1 mAb with T2 cells. Fluorescence analysis and determination of FL1 were performed as described (Stauss et al., 1992). Peptides were added to T2 cells at 50 μg/ml (final concentration). After overnight culture, in IMDM-FCS, cells were washed and the levels of HLA-A2 expression were determined using HLA-A2 specific mAb.
(§1) mAbs to CD3 (OKT3-FITC), CD4 (OKT4-FITC) and CD8 (OKT8-FITC) were obtained from Ortho Diagnostic (Ortho, Raritan, N.J.), mAb W6/32 (anti-HLA, -A, -B, -C) from Dako (Dako-Dakopatts, Denmark); HLA-A2 reacting mAb BB7.2 and MA2.1 from ATCC. Immunofluorescence studies were performed as described in Example 1.
(§2) To determine whether these peptides and longer analogs affect HLA-A2 conformation as an indication of HLA-A2 binding, the effects of HER-2 peptides on the reactivity of conformationally dependent mAb MA2.1 and BB.7.2 were examined with HLA-A2 of T2 cells. The human cell line T2 has a defect affecting endogenous peptide loading of MHC class I molecules. As a consequence, cell surface expression of HLA-A2 is lower (30-40%) than in normal LBL lines transfected with HLA-A2 (e.g., C1R) but the reactivity of MA2.1 and BB.7.2 mAb is increased when certain HLA-A2 binding peptides are added to the culture medium (Anderson et al., 1993). Although most human MHC class I molecules cannot be induced at the low temperatures used for their murine counterparts because of fundamental structural differences between human and mouse class I (Anderson et al., 1993), the fact that they express few endogenous (mainly signal) peptides (Zweerink et al., 1993) increases the sensitivity of detection of peptide-HLA-A2 interaction.

[2] = target: T1, HLA-A2 of T2 cells; assay: Reactivity of BB7.2 mAb with T2 cells after culture with peptide (immunofluorescence, FL1); assay type: cell-based; conditions: peptide 50 μg/ml, overnight culture
Method: FIG. 5B. Effects of HER-2 peptides on reactivity of BB7.2 mAb with T2 cells. Studies were performed as described in the legend to FIG. 5A.
as §1, §2

[3] = tested on: OVA-1, HER-2high; assay: Lysis of peptide pre-pulsed autologous tumor by CTL-TAL (HLA-A2- system); assay type: cell-based, human; conditions: OVA-1 pre-pulsed with peptide
Method: (§3) Tumor cells and fibroblasts were labeled with 200 μCi of ^51Cr (Na^51CrO4; Amersham, Arlington Heights, Ill.) for 90 min at 37° C. (Ioannides et al., 1991). Lymphoblastoid cells and HLA-A2 transfectants were labeled overnight in RPMI-FCS, then washed three times and incubated with effector cells in RPMI-FCS in an incubator with 5%. CO2 (Bednarek et al., 1991; Gammon et al., 1992). When peptide recognition was determined, targets were incubated with 25 μM of peptides overnight during ^51Cr labeling or with 10 μM peptide for 2 h at 37° C. in RPMI-FCS then washed three times before being incubated with effector cells. Separate controls for spontaneous and total lysis were made for each peptide-pulsed target (Ioannides et al., 1991; Bednarek et al., 1991; Gammon et al., 1992). After 4-5 h, 100 μl of supernatant was collected and counted. To determine maximum lysis in 20-h assays, plates were left undisturbed in the incubator and the supernatant was collected after overnight incubation. For cold target inhibition studies, C1R:A2 cells were preincubated with HER-2 or control peptides overnight, then washed and admixed with ^51Cr-labeled targets at 2:1 and 6:1 (cold:hot targets) ratios. Percentage lysis was calculated from the formula: 100×[(E−S)/(T−S)], where E is experimental release, S is release in the absence of CTL, and T is release in 2 M HCl.
(§4) To address whether these peptides interfere with tumor lysis by autologous tumor reactive CTL-TAL in HLA-A2^− systems, the lysis of OVA-1, HER-2^high (HLA-A1, 24, B8, 35, Cw4) and OVA-31, HER-2^high was determined by pre-pulsing with either C43 or as a control, C44 peptide (VS→II). Target lysis by CTL-1 was: OVA-1 (68%), K562 (18%), OVA-1 plus C43 (37%), and OVA-1 plus C44 (51%). […] However, C43 and C44 had no effect on lysis of OVA-31 by CTL-31.

[4] = tested on: OVA-31, HER-2high; assay: as above; assay type: cell-based, human; conditions: OVA-31 pre-pulsed with peptide
Method: as §3, §4

FL1 of T2 cells stained with MA2.1 mAb [1] | FL1 of T2 cells stained with BB7.2 mAb [2] | Sequence | Target lysis by CTL-1 [3] [%] | inhibition of lysis of OVA-1 by CTL-1 [3] [%] | effect on lysis of OVA-31 by CTL-31 [4]
significant increase in FL1 | even higher increase in FL1 | ELVSEFSRV [Peptide C84, HER-2:971-979 analog, Met(P9) substituted by Val] | – | – | –
failed to significantly increase FL1 | – | RFRELVSEFSRMAR [Peptide C43, HER-2:968-981 14mer peptide] | 37 | 45 | no effect
